For this assay, the target named is DGKζ with a FLAG epitope tag at its COOH terminus (DGKζ-FLAG) (human). In words: co-IP.

A value given as a limit tells only on which side of the number the result lay.

DGKζ with a FLAG epitope tag at its COOH terminus (DGKζ-FLAG) (human), sequence (Q13574 whole entry): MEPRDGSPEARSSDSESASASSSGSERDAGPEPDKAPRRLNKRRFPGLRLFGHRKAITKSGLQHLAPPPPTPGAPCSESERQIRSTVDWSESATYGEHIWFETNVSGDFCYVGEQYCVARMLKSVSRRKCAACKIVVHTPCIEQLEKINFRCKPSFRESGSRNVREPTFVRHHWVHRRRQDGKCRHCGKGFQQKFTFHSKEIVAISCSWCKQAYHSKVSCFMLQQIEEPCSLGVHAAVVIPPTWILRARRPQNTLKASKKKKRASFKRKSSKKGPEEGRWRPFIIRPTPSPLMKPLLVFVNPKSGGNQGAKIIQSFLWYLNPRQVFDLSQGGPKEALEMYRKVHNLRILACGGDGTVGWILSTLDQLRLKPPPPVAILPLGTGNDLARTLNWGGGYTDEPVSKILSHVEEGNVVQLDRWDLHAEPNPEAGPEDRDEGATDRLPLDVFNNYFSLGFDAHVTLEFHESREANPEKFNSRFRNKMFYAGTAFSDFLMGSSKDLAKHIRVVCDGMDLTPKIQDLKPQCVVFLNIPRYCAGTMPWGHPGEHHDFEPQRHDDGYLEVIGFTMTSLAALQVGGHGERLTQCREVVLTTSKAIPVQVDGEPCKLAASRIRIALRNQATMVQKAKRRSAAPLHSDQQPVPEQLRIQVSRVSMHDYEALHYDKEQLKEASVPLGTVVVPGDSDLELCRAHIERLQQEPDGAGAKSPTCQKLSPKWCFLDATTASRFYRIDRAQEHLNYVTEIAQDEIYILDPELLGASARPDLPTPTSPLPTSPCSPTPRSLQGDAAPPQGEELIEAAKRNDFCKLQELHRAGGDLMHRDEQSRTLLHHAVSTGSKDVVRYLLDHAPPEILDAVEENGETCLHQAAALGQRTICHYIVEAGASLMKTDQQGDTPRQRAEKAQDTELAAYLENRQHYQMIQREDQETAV
RasGRP with an NH2-terminal HA epitope tag (HA-RasGRP), sequence (O95267 whole entry): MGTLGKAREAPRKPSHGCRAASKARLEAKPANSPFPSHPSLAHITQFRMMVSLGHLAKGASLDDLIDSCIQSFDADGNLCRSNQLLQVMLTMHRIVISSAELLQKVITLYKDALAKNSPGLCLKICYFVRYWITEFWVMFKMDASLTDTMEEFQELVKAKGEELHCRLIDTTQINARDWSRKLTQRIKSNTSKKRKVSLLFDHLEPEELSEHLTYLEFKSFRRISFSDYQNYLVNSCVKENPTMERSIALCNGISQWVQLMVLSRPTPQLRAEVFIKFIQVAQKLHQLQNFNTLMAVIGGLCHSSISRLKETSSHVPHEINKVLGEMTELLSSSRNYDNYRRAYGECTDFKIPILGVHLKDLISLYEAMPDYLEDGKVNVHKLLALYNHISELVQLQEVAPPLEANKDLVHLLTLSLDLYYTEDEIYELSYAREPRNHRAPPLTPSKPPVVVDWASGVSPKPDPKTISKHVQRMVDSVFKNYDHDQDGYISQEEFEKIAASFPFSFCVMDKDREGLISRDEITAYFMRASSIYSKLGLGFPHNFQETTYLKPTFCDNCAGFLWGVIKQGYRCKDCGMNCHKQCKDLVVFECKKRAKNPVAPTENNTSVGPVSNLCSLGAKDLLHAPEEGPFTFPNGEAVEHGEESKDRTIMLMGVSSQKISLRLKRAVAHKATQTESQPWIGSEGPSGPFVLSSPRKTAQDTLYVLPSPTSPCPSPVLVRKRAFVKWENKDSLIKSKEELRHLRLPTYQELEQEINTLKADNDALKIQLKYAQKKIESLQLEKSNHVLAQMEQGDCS

On to “A15-H-Ras (from UniProt P01112 1-189) (natural protein)”, for which the percent coprecipitated was more than 20%.

“RasGRP with an NH2-terminal HA epitope tag (HA-RasGRP) (from UniProt O95267 1-797) (natural protein)” came in with a percent coprecipitated of more than 20%.

Values taken from publication PMC2199204.
